The results in this text go back to the nanobody polyreactivity screen of Harvey et al. (2022).

The data set in a line: yeast display, Sf9 membrane polyspecificity reagent, FACS + sequencing; frameworks hold sequencing errors. The procedure, abridged:
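Nanobodies from a synthetic yeast display library (Saccharomyces cerevisiae BJ5465), induced 36–48 hours with galactose, were stained 1 hour at 4 °C with 10% biotinylated, detergent-solubilized Sf9 membrane reagent, enriched on streptavidin microbeads, then FACS-sorted. Anti-HA (expression) and streptavidin (reagent binding) fluorescence set low and high (top ~1%) gates. Polyreactivity labels come from the gate of origin. Genes were colony-PCR amplified, MiSeq 2 × 250 sequenced and filtered by CDR length.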
As to “QVQLVESGGGLVQAGGSLRLSCAASGITFDTYAMGWYRQAPGKERELVAAISKSGGSPYYADSVKARFTISRDNAKNTVYLQMNSLKPEDTAVNYCNARYRHSGRYWDWYYYWGQGTQVTVSS”, the “polyreactivity (PSR sort gate)” value is given as “high polyreactivity”.

Take “QVQLVESGGGLVQAGGSLRLSCAASGITFDVNAMGWYRQAPGKERELVAAITAGGNTYYADSVKGRFTISRDNAKNTVYLQMNSLKPEDTAVYYCAAVSTSLYWAGYDYWGQGTQVTVSS”: the “polyreactivity (PSR sort gate)” value is recorded as “low polyreactivity”.

In the case of “QVQLVESGGGLVQAGGSLRLSCAASGITFDYYAMGWYRQAPGKERELVAAIRSGGSTNYADSVKGRFTISRDNAKNTVYLQMNSLKPVDTAVYYCAAVRYYPWYDYWGQGTQVTVSS”, the “polyreactivity (PSR sort gate)” value is listed as “high polyreactivity”.

As to “QVQLVESGGGLVQAGGSLRLSCAASGITFDYYAMGWYRQAPGKERELVAAISGGDSTNYADSVKGRFTISRDNEKNTVYLQMNSLKPEDTAVYYCNVQYSGLYWSYRIDFDYWGQGTQVTVSS”, the “polyreactivity (PSR sort gate)” value was “high polyreactivity”.

As to “QVQLVESGGGLVQAGGSLRLSCAASGITFDYYGMGWYRQAPGKEGELVASITSGGSTNYADSVNGRFTISRDNAKNTVYLQMNSLKPEDTAVYYCNAEFWEVSPDRRDYDYWGQGTQVTVSS”, the “polyreactivity (PSR sort gate)” value is on record as “low polyreactivity”.

As to “QVQLVESGGGLVQAGGSLRLSCAASGITFEDYAMGWYRQAPGKERELVAAITSNGGSTYYADSVKGRFTISRDNAKNTVYLQMNSLKPEDTAVYYCAATKYFSYYGRVSWADGGYWGQGTQVTVSS”, the “polyreactivity (PSR sort gate)” value is given as “low polyreactivity”.

For “QVQLVESGGGLVQAGGSLRLSCAASGITFEGYSMGWYRQAPGKERELVAAIRSSGTSTYYADSVKGRFTISRDNAKNTVYLQMNSLKPEDTAVYYCNRARSSSRYDYWGQGTQVTVSS”, the “polyreactivity (PSR sort gate)” value is “low polyreactivity”.

On to “QVQLVESGGGLVQAGGSLRLSCAASGITFEPYAMGWDREAPGKEREFVSDNTWSGGSTYYADSVKSRFTISRDNANNTVYLQMNSLKPEDTAVYYCAADGWTSYWSDYWGQGTQVTVSS”, for which the “polyreactivity (PSR sort gate)” value was “low polyreactivity”.

For the sequence “QVQLVESGGGLVQAGGSLRLSCAASGITFERNAMGWYRQAPGKERELVAAITGRGTSTYADSVKGRFTISRDNAKNTVYLQMNSLKPEDTAVYYCAAVGWFADFLFSDINGYYWGQGTQVTVSS”, the “polyreactivity (PSR sort gate)” value is listed as “low polyreactivity”.

As for “QVQLVESGGGLVQAGGSLRLSCAASGITFERYVMGWYIQAPGKERELVASISRSGSTFYADSVKGRFTISRDNAKNTVYLQMNSLKPEDTAVYYCNADRFWFHWVYSRYHYDYWGQGTQVTVSS”, the “polyreactivity (PSR sort gate)” value is “high polyreactivity”.

As for “QVQLVESGGGLVQAGGSLRLSCAASGITFEVNAMGWYRQAPGKERELVARISRDGSTNYADSVKGRFTISRDNAKNTVYLQRNSLKPEDTAVYYCNAKLYRSFDYWGQGTQVTVSS”, the “polyreactivity (PSR sort gate)” value is “low polyreactivity”.

Turning to “QVQLVESGGGLVQAGGSLRLSCAASGITFEYYAMGWYRQAPGKERELVAAIDTGGSTNYADSVKGRFTISRDNAKNTVYLQMNSLKPEDTAVYYCTADGPSTPWVDYGYWGQGTQVTVSS”, the “polyreactivity (PSR sort gate)” value is on record as “low polyreactivity”.

For “QVQLVESGGGLVQAGGSLRLSCAASGITFEYYAMGWYRQAPGKERELVAAISWSGSSTYYADSVKGRFTISRDNAKNTVYLQMNSLKPEDTAVYYCNADSSWWASDDQYDYWGQGTQVTVSS”, the “polyreactivity (PSR sort gate)” value is on record as “low polyreactivity”.

Take “QVQLVESGGGLVQAGGSLRLSCAASGITFFDYAMGWSRQAPGKERELVAAIDLSDGRTYYADSVKGRFTISRDNAKNTFYLQMNSLKPEDTAVYYCAAVSTSLYWAGYDYWGQGTQVTVSS”: the “polyreactivity (PSR sort gate)” value is given as “low polyreactivity”.

With “QVQLVESGGGLVQAGGSLRLSCAASGITFFENAMGWYRQAPGKERELVAAISYSGGNTYADSVKGRFTISRDNAKNTVYLQMNSLKPEDTAVYYCNADYAGWGEYDYWGQGTQVTVSS”, the “polyreactivity (PSR sort gate)” value was “low polyreactivity”.

“QVQLVESGGGLVQAGGSLRLSCAASGITFFEYAMGWYRQAPGKERELVAVITSGGSTNYADSVKGRFTISRDNAKNTVYLQMNSLKPEDTAVYYCNARVVKYRWWYDYYYWGQGTQVTVSS”: the “polyreactivity (PSR sort gate)” value is on record as “low polyreactivity”.
